Results published in paper doi:10.1101/2021.01.18.427223.

Target: VPS35 D620N (VPS35 D620N knock-in mouse, VKI) (mouse (endogenous in brain)), Q9EQH3
Experiment: co-IP
Conditions: remark: other sources report otherwise

percent reduction of co-IP against wild type: 25 to 30%
B1: WASH complex member FAM21, Q6PGL7 1-1334 (natural protein)
chain: MNRTSPDSERPPASEPVWERPWSVEEIRRSSQNWSLAADAGLLQFLQEFSQQTISRTHEIKKQVDGLIQETKATHCRLHNVFNDFLMLSNTQFIENRVYDEEVEEQVLKAEAEKAEQEKTREQKEIDLIPKVQEAVNYGLQVLDSAFEQLDIKAGNSDSEEDDANERVDLILEPKDLYIDRPLPYLIGSKLFMEQEDVGLGELSSEEGSVGSDRGSIVDSEDEKEEEESDEDFASHSDNDQNQHTTQISDEEEDDDGDLFADSEKEGDDIEDIEESAKSKRPTSFADELAARIKGDISNQRKEGQTDGKPQKTVKEKKERRTPADDEEDILFPPPTLTDEDFSPFGSRGGLFSNGQGLFDDEDESDLFKEAPRARPAQAPVSEELPPSPKPGKKIPAGAVSVLLGHPDVSGSTSAPSLKELQKHGQPTPGKSSHLPTPAGLFDDDDNDNDEDDNNFFMPSSSKPSKTDKVKSTAIIFDDDEGDLFKEKAEALPAASVSQTHESKTRADKTIALPSSKNLKLVSETKTQKGLFSDEEDSEDLFSSQSSSKPKSASLPSSQPPTSVSLFGDEDEEDSLFGSAAAKKQTSSLQPQSQEKAKPSEQPSKKTSALLFSSDEEDQWNIADSHTKLASDNKSKGELWDSGATQGQEAKAVKKTNLFEDDDDDEVDLFAIAKDSQKKTQRTSLLFEDDAESGSSLFGLPPTSVPSATTKKESVPKVPLLFSDEEDSEVPSGVKPEDLKVDNARVSPEVGSADVASIAQKEGLLPASDQEAGGPSDIFSSSSPLDKGAKGRTRTVLSLFDEDEDKVEDESSTCAPQDGREKGLKTDSRPKSTGVFQDEELLFSHKLQKDNDPDVDLFAGTKKIRSSVPSGGSLFGDDEDDDLFSSAKTQPVVPEKKGTLKKDHPVSLKNQDPLDSTQGSKEKSTWKTEPAQDSSGLTPFKSREPSSRIGKIQANLAINPAALLPTVALQIPGTKPVSSELAFPSSEPGRSHILESVPTLPGSVEAGVSFDLPAQADTLHSANKSRVKVRGKRRPQTRAARRLAAQESSEAEDVTVDRGPVAQLSSSPVLPNGHQPLLQPRMASGQTSSETATAPPWEGGPVLSAADRSFFVKSRPQTGNEADLFDSGDIFPKSRGSQSVEGAGVMAGEPPSHSSGGRKEKSLAFPDLSEGSSTEDLFQSVKPRAAKNRNPFPLLEDEEDLFADPRGKKNERKPDSHQDSVSKTHDIFEDDIFATEAIKPFPKKREKGRTLEPNLFDDNIDIFADLTVKPKEKSKKKVAAKSMFDDDTDDIFSSGLQAKASKPKSQSAEAASEQRSEHKVASIFDDPLNAFGSQ
